Test results: US20240383982A1 (Genmab, published 2024)

How the values were obtained:
[1] = target: T1, human B7H4, full length, on cells (human, UniProt Q7Z7D3 25-282); assay: flow cytometry on HCC1954 tumor cells [panel HCC1954 cells]
T1 construct: Uniprot Q7Z7D3; Used for transfected HEK cells and for the B7H4-expressing human tumor cell lines (endogenous B7H4); also called VTCN1
T1 sequence: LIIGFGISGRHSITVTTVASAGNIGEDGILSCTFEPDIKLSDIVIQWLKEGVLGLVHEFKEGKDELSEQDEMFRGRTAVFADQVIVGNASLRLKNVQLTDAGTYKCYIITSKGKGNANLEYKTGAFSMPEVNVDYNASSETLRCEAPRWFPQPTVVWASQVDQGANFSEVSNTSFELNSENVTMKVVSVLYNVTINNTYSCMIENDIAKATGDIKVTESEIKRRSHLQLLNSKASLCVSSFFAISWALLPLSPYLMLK
Protocol: Cells (3×10⁴ cells/well) were incubated in polystyrene 96-well round-bottom plates (Greiner bio-one, cat. no. 650180) with serial dilutions of antibodies (ranging from 0.000458 to 30 μg/mL in 4-fold dilution steps) in 100 μL PBS/0.1% BSA/0.02% azide (staining buffer) at 4° C. for 30 min. Experiments were performed in technical duplicate. After washing twice in staining buffer, cells were incubated in 50 μL secondary antibody at 4° C. for 30 min. As a secondary antibody, R-Phycoerythrin (PE)-conjugated goat-anti-human IgG F(ab′)₂ (1:500 in FACS buffer; Jackson ImmunoResearch Laboratories, Inc., West Grove, PA, cat. no. 109-116-098), was used. Cells were washed twice in staining buffer, re-suspended in 30 μL FACS buffer containing Topro-3 (1:10,000 dilution) and analyzed on an iQue Screener (Intellicyt Corporation, USA). Binding curves were analyzed using non-linear regression (sigmoidal dose-response with variable slope) using GraphPad Prism V7.02 software (GraphPad Software, San Diego, CA, USA).
Binding was analyzed by flow cytometry as described above.

[2] = target: T2, rabbit (Oryctolagus cuniculus) B7H4, full length, on HEK-293F cells (rabbit, UniProt Q7Z7D3 25-282 (human entry)); assay: flow cytometry, transiently transfected HEK-293F cells
T2 construct: Uniprot G1TQE8; also called rabbit B7H4
T2 chain: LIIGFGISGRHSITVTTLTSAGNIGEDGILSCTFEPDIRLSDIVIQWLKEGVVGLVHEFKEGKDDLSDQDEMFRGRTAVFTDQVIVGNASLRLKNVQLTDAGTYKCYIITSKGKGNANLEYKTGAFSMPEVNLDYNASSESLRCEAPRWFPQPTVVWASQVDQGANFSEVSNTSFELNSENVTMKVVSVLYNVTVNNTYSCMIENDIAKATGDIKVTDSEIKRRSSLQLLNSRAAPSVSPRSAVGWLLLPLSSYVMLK

[3] = target: T3, dog (Canis familiaris) B7H4, full length, on HEK-293F cells (dog, UniProt Q7Z7D3 25-282 (human entry)); assay: as above
T3 construct: Uniprot F1P8R9; also called dog B7H4
T3 chain: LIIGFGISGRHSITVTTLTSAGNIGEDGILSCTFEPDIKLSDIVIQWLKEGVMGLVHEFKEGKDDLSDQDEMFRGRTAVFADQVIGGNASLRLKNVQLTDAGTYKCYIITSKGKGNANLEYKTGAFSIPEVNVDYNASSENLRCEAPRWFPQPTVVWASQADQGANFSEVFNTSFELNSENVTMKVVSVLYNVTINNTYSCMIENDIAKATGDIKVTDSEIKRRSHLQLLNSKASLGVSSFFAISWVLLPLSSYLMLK

[4] = target: T4, human recombinant His tagged B7H4 protein (Sino Biological cat. no. 10738-H08H) (human, UniProt Q7Z7D3 29-258); assay: BLI (Octet HTX); antibody on anti-human IgG Fc capture sensor, human B7H4 ECD-His in solution; 1st experiment
T4 construct: Bought protein; theoretical mass 26.8 kDa; also called human B7H4; human B7H4 extracellular domain
T4 sequence: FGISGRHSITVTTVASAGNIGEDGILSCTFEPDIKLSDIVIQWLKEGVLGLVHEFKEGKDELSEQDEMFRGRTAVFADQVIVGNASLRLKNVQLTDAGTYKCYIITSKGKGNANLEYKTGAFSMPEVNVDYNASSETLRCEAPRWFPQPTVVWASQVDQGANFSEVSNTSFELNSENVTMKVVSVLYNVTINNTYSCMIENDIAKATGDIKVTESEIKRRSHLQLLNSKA
Protocol: (§1) Target binding affinity of B7H4 antibodies was determined by label-free biolayer interferometry (BLI) on an Octet HTX instrument (FortéBio). Experiments were carried out while shaking at 1,000 RPM at 30° C. […] Anti-Human IgG Fc Capture (AHC) biosensors (FortéBio, cat. no. 18-5060) were pre-conditioned by exposure to 10 mM glycine (Sigma-Aldrich, cat. no. 15527) buffer pH 1.7 for 5 s, followed by neutralization in Sample Diluent (FortéBio, cat. no. 18-1048) for 5 s; both steps were repeated 2 times. Next, AHC sensors were loaded with antibody (1 μg/mL in Sample diluent) for 600 s. […] The theoretical molecular mass of human B7H4 and mouse B7H4 (as ECD-His tagged molecules) based on their amino acid sequences (26.8 kDa and 26.6 kDa respectively) were used for calculations. For each antibody a reference sensor was used, which was incubated with Sample Diluent instead of antigen. AHC sensors were regenerated by exposure to 10 mM glycine buffer pH 1.7 for 5 s, followed by neutralization in Sample Diluent for 5 s; both steps were repeated twice. Subsequently sensors were loaded again with antibody for the next cycle of kinetics measurements.
(§2) Data were acquired using Data Acquisition Software v9.0.0.49d (FortéBio) and analyzed with Data Analysis Software v9.0.0.12 (FortéBio). Data traces were corrected per antibody by subtraction of the reference sensor. The Y-axis was aligned to the last 10 s of the baseline, Interstep Correction alignment to dissociation and Savitzky-Golay filtering were applied. Data traces with a response<0.05 nm were excluded from analysis. The data was fitted with the 1:1 Global Full fit model using a window of interest for the association and dissociation times set at 300 s and 200 s respectively.

[5] = target: T4, human recombinant His tagged B7H4 …; assay: BLI (Octet HTX); antibody on anti-human IgG Fc capture sensor, human B7H4 ECD-His in solution; 2nd experiment (average of n = 3)
Protocol: as §1, §2

B1: bsIgG1-huCD3-H101G-FEALxB7H4-C1-N52S-FEAR (bispecific antibody)
heavy 1: not shown
light 1: not shown
heavy 2: QVQLQQWGAGLLKPSETLSLTCAVYGGSFSGYYWSWIRQPPGKGLEWIGEISHSGSTNYNPSLKSRVTISIDTSKNQFSLKLTSVTAADTAVFYCARGLFNWNFDSWGQGTLVTVSSASTKGPSVFPLAPSSKSTSGGTAALGCLVKDYFPEPVTVSWNSGALTSGVHTFPAVLQSSGLYSLSSVVTVPSSSLGTQTYICNVNHKPSNTKVDKRVEPKSCDKTHTCPPCPAPEFEGGPSVFLFPPKPKDTLMISRTPEVTCVVVAVSHEDPEVKFNWYVDGVEVHNAKTKPREEQYNSTYRVVSVLTVLHQDWLNGKEYKCKVSNKALPAPIEKTISKAKGQPREPQVYTLPPSREEMTKNQVSLTCLVKGFYPSDIAVEWESNGQPENNYKTTPPVLDSDGSFFLYSRLTVDKSRWQQGNVFSCSVMHEALHNHYTQKSLSLSPGK
light 2: DIQMTQSPSSLSASVGDRVTITCRASQGIRNDLGWYQQKPGKAPKRLIYGASSLQSGVPSRFSGSGSGTEFTLTISSLQPEDFATYYCLQHNSYPRTFGQGTTVEIKRTVAAPSVFIFPPSDEQLKSGTASVVCLLNNFYPREAKVQWKVDNALQSGNSQESVTEQDSKDSTYSLSSTLTLSKADYEKHKVYACEVTHQGLSSPVTKSFNRGEC
notes: also called bslgG1-huCD3-H101G-FEALxB7H4-C1-N52S-FEAR; BslgG1-huCD3-H101G-FEALxB7H4-C1-N52S-FEAR
EC50 (read off the curve) [1]: ~3 µg/mL

B2: IgG1-B7H4-C5-FEAR (antibody, V domains shown)
VH: QLQLQESGPGLVKPSETLSLTCTVSGGSIKSGSYYWGWIRQPPGKGLEWIGNIYYSGSTYYNPSLRSRVTISVDTSKNQFSLKLSSVTAADTAVYYCAREGSYPNQFDPWGQGTLVTVSS
VL: EIVMTQSPATLSVSPGERATLSCRASQSVSSNLAWYQQKPGQAPRLLIYGASTRATGIPARFSGSGSGTEFTLTISSLQSEDFAVYYCQQYHSFPFTFGGGTKVEIKR
notes: Full length IgG1 FEAR, kappa; variable domains from US20190085080A1
binding result [2]: binds
binding result [3]: binds

B3: IgG1-B7H4-C1-N52S-FEAR (antibody, V domains shown)
VH: QVQLQQWGAGLLKPSETLSLTCAVYGGSFSGYYWSWIRQPPGKGLEWIGEISHSGSTNYNPSLKSRVTISIDTSKNQFSLKLTSVTAADTAVFYCARGLFNWNFDSWGQGTLVTVSS
VL: DIQMTQSPSSLSASVGDRVTITCRASQGIRNDLGWYQQKPGKAPKRLIYGASSLQSGVPSRFSGSGSGTEFTLTISSLQPEDFATYYCLQHNSYPRTFGQGTTVEIKR
notes: Full length human IgG1 with L234F, L235E, D265A, K409R (FEAR) heavy chain constant region and kappa light chain; bivalent, monospecific; also called IgG1-B7H4-C1-052S-FEAR
Kd [4]: 57 nM
koff [4]: 0.0054 s⁻¹
kon [4]: 94000 M⁻¹ s⁻¹
Kd [5]: 57 nM
koff [5]: 0.0047 s⁻¹
kon [5]: 84000 M⁻¹ s⁻¹
